Measured values from the supplement of paper PMC10567573.

B1: RSAD1 (parent)
chain: YCNFNKYIPRRLEEAAMQKCLVTE
B2: KRT13 (parent)
chain: YGGGLGGGFGGGFAGGFVDFGACD

Variants of: B1
Assay: protein stability index of a GFP-peptide fusion (GPS, HEK-293T) (PSI 1-6); higher = more stable
Conditions: c terminus: a fixed tail appended
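Also: lentivirally expressed fusions sorted by FACS into six bins by GFP to DsRed ratio, PSI derived from sequencing read proportions per bin multiplied by bin number.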

Protein stability index of substitutions, site by site:
C20: L 2.91, G 2.9, P 1.95, A 2.87, D 2.56, H 2.31, V 1.89, S 2.1, Y 4.07, N 2.44, Q 2, M 2.27, W 2.77, E 2.02, K 2.11, I 3.05, F 2.7, T 1.89, R 2.55
V22: S 2.38, N 2.35, L 1.3, H 2.78, G 2.02, I 2.77, Y 1.41, K 2.57, A 2.25, T 3.32, E 2.41, M 2.58, Q 2.5, C 2.58, W 2.23, P 1.97, D 1.76, R 3.88
K19: L 3.06, G 2.12, Q 2.96, P 2.76, T 2.01, N 2.37, Y 2.31, S 2.41, W 2.37, E 2.71, M 4.09, I 2.25, V 1.48, C 2.08, D 1.68, H 1.7
Q18: T 1.89, P 1.96, M 3.17, H 1.88, I 2.76, Y 2.88, N 3.44, S 2.02, R 2.03, G 1.76, V 3.15, L 1.71, K 2.15, C 2.41, D 1.84, F 2.34, A 1.75
E24: K 2.46, I 2.83, M 2.84, P 2.28, V 1.9, H 2.08, W 2.13, L 3.31, A 3.14, Q 2.38, F 2.77, Y 2.16, T 1.44, D 2.4, R 2.32, N 2.17, G 2.29, S 1.64, C 3.44
M17: W 2.1, I 2.82, Y 2.85, H 3.23, A 1.98, P 1.92, R 1.71, Q 2.57, C 1.72, K 2.85, F 1.67, D 3.71, N 2.11, V 2, L 1.96, T 3.45, E 2.44, G 1.99
A16: R 2.39, Y 2.16, L 1.41, V 2.98, M 1.57, W 1.79, H 3.97, Q 2.23, T 2.39, I 3.03, S 2.56, N 3.66, K 3.53
L21: V 2.01, Y 3.19, S 1.42, N 2.19, K 2.67, E 2.41, R 1.51, F 2.97, D 2.17, I 1.79, H 2.69, P 2.17, T 2.04, G 2.03, M 1.42, C 2.15, Q 3.19, A 2.09
T23: V 3.13, Q 3.64, S 1.93, H 2.92, F 3, Y 2.61, K 2.27, N 2.85, P 3.87, R 1.78, E 1.94, D 1.78, M 2.17, A 1.9, L 1.91, W 2.85, I 2.22

Variants of: B2
Assay: as above
Conditions: c terminus: a fixed tail appended

Protein stability index of substitutions, site by site:
F9: V 1.94, S 1.85, P 1.75, A 1.68, N 2, K 1.64, E 2.65, M 1.45, G 1.87, H 2.5, C 1.79, R 1.69, L 1.76, Y 1.69, Q 2.1, D 2.46, T 2.28, I 1.49
G6: D 1.89, R 1.54, E 2.26, V 2.12, Q 2.38, N 1.65, H 1.79, Y 1, C 2.27, W 3.1, M 1.81, K 1.67, I 3.11, S 1.4, A 2.4, L 2.86, F 1.68, T 2.19, P 3.58
Y1: K 2.68, S 3.23, G 3.48, T 2.73, I 2.54, M 2.43, H 2.9, W 2.08, E 3.3, P 2.75, D 3.61, C 1.52, R 2.76, N 3.65, Q 3.12, A 2.87, L 1.92, V 3.53, F 1.16
G3: V 2.48, T 2.3, W 1.18, S 1.84, Q 2.5, M 2.51, F 1.88, L 1.58, N 2.2, R 2.27, E 2.33, C 1.87, Y 1.21, I 2.29, A 1.77, D 1.5, H 1.9, P 2.03
G11: D 2.38, K 1.97, I 3.54, H 1.75, C 1.56, E 2.12, F 2.07
G2: N 2.23, E 2.66, L 3.13, F 2.91, K 1.86, S 1.54, R 2.33, V 3.25, D 2.67, W 2.56, Y 1.63, I 3.26
G4: A 1.89, L 2.14, H 1.6, Q 1.68, V 1.55, M 1.21, T 1.87, P 2.03, I 1.93, W 2.33, K 2.84, Y 2.38, N 1.8, F 1.7, E 1.95, R 2.02, S 2.42, D 2.52
G8: C 1.26, P 1.75, R 1.67, H 3, T 1.77, E 1.72, N 1.78, S 2.72, I 2.44, K 1.24, A 1.93, D 2.41, Q 1.23, W 3.32, V 2.48
G7: P 1.84, D 1.89, S 1.48, Y 2.36, L 1.81, I 1.9, T 1.49, F 3.32, H 1.92, M 2.46, A 2.41, C 3.15, N 1.31, R 1.74, E 1.91, Q 1.23
L5: M 1.93, D 2.04, A 1.64, K 1.51, F 1.38, C 1, V 2.73, R 2.62, S 1.36, E 2.51, N 1.84, G 1.87, Y 2.79, Q 2.02, H 1.8, P 1.95, I 2.27, T 2.22, W 3.09
G10: A 2.01, D 2.03, F 2.02, W 3.23, H 1.7, C 4, T 1.26, R 1.91, N 1.38, M 3.61, P 1.92, Y 3.74, V 1.93, S 2.15, Q 2.21, K 1.53, I 1.58, E 1.96
